B1: HuMab 169 (antibody, V domains shown)
VH: QVQLVQSGAEVKKPGASVKVSCKASGYTFTNYGISWVRQAPGQGLEWMGWLSAYSGNTIYAQKLQGRVTMTTDTSTTTAYMELRSLRSDDTAVYYCARDRIVVRPDYFDYWGQGTLVTVSS
VL: EIVLTQSPATLSLSPGERATLSCRASQSVSSYLAWYQQKPGQAPRLLIYDASNRATGIPARFSGSGSGTDFTLTISSLEPEDFAVYYCQQRSNWPRTFGQGTKVEIK
notes: also called TH1014-169; PC1014-169
B2: HuMab 025 (antibody, V domains shown)
VH: QVQLQQWGAGLLKPSETLSLTCAVYGGSFSDYYWNWIRQPPGKGLEWIGEIHHSGSTNYNPSLKSRVTISVDTSKNQFSLKLSSVTAADTAVYYCARGYYDSGVYYFDYWAQGTLVTVSS
VL: DIQMTQSPSSLSASVGDRVTITCRASQGISRWLAWYQQKPEKAPKSLIYAASSLRSGVPSRFSGSGSGTDFTLTISSLQPEDFATYYCQQYNSYPITFGQGTRLEIK
notes: also called TH1014-025; PC1014-025
B3: HuMab 050 (antibody, V domains shown)
VH: EVQLLESGGGLVQPGGSLRLSCAASGFTFSSYAMNWVRQAPGKGLEWVSAISGRGGTTYYADSVKGRFTISRDNSKNTLYLQMSSLRAEDTAVYYCAKARANWDYFDYWGQGTLVTVSS
VL: DIQMTQSPSSVSASVGDRVTITCRASQGISSWLAWYQHKPGKAPKLLIYAASILQSGVPSRFSGSGSGTDFTLTISSLQPEDFATYYCQQANSFPITFGQGTRLEIK
notes: also called TH1014-050; PC1014-050
B4: HuMab 091 (antibody, V domains shown)
VH: QVQLQQWGAGLLKPSETLSLTCAVSGGSFSGYYWTWIRQPPGKGLEWIGEIYHSGDTNYNPSLKSRVTISVDTSKNQFSLKLYSVTAADTAVYYCARLYFGSGIYYLDYWGQGTLVTVSS
VL: DIQMTQSPSSLSASVGDRVTITCRASQGISSWLVWYQQKPEKAPKSLIYAASSLQSGVPSRFSGSGSGTDFTLTISSLQPEDFATYYCQQYNSFPPTFGQGTKVEIK
notes: also called TH1014-091; PC1014-091
B5: HuMab 084 (antibody, V domains shown)
VH: QVQLVQSGAEVKKPGSSVKVSCKASGGTFRTYAINWVRQAPGQGLEWMGRINTVLGIVNHAQKFQGRVTITADKSTNTAYMELNSLRSEDTAVYYCAREKGVDYYYGIEVWGQGTTVTVSS
VL: DIQMTQSPSSVSASVGDRVTITCRASQGISSWLAWYQHKPGKAPKLLIYVASTLQSGVPSRFSGSGSGTDFTLTISSLQPEDFATYYCQQANSFPLTFGGGTKVEIK
notes: also called TH1014-084; PC1014-084
B6: HuMab 129 (antibody, V domains shown)
VH: QVQLVESGGGVVQPGRSLRLSCAASGFTFSTFAIHWVRQAPGKGLEWVAVISYDGGHKFYADSVKGRFTISRDNSKNTLYLQMNSLRAEDTAMYYCARGLGVWGAFDYWGQGTLVTVSS
VL: EIVLTQSPATLSLSPGERATLSCRASQSVSSYLAWYQQKPGQAPRLLIYDASNRATGIPARFSGSGSGTDFTLTISSLEPEDFAVYYCQQRSNWWTFGQGTKVEIK

Legend:
[1] = molecular target: T1, HER2ECDHis (human, UniProt P04626 23-653, biotinylated in the cross-block ELISA (sites not given)); assay: ELISA; competitor 084
T1 construct: range 1-653; expressed in HEK-293F; also called soluble HER2; biotinylated HER2ECDHis

[2] = molecular target: T1, HER2ECDHis; assay: ELISA; competitor 153
Experimental: (§1) Next, the ELISA wells were washed with PBST (PBS supplemented with 0.05% Tween-20 [Sigma-Aldrich, Zwijndrecht, The Netherlands]) and blocked for one hour at room temperature (RT) with PBSTC (PBST supplemented 2% [v/v] chicken serum [Gibco, Paisley, Scotland]). The ELISA wells were then washed with PBST and incubated for one hour at RT with HER2ECDHis serially diluted in PBSTC (0.25-2 μg/mL in 2-fold dilutions). […] The plate was thereafter washed with PBST and incubated for one hour with 0.1 μg/mL Streptavidin-poly-HRP (Sanquin, Amsterdam, The Netherlands) diluted in PBST. After washing, the reaction was visualized through a 15 minutes incubation with 2,2′-azino-bis (3-ethylbenzothiazoline-6-sulfonic acid) (ABTS: one ABTS tablet diluted in 50 mL ABTS buffer (Roche Diagnostics, Almere, The Netherlands)) at RT protected from light. The colorization was stopped by adding an equal volume of oxalic acid (Sigma-Aldrich, Zwijndrecht, The Netherlands). Fluorescence at 405 nm was measured on a microtiter plate reader (Biotek Instruments, Winooski, USA).
(§2) Each HER2 antibody was coated to the ELISA wells at the sub-optimal dose that was determined as described above. After blocking of the ELISA wells, the wells were incubated with the predetermined concentration of 1 μg/mL biotinylated HER2ECDHis in the presence or absence of an excess of a second (competitor) HER2 antibody. The ELISA was then performed as described above. […] Percentage competition was then determined as 100 minus the percentage of inhibition.

[3] = molecular target: T2, human epidermal growth factor receptor 2 (HER2), membrane-bound on cells (human, UniProt P04626 23-1255); assay: cell-based or functional assay
[4] = molecular target: T1, HER2ECDHis; assay: ELISA; competitor 025
Experimental: as §1, §2

[5] = molecular target: T1, HER2ECDHis; assay: ELISA; competitor 050
Experimental: as §1, §2

[6] = molecular target: T2, human epidermal growth factor receptor …; assay: cell-based or functional assay; remark: listed apart in the source
[7] = molecular target: T1, HER2ECDHis; assay: ELISA; competitor 169
Experimental: as §1, §2

[8] = molecular target: T2, human epidermal growth factor receptor …; assay: cell-based or functional assay; remark: listed apart in the source
[9] = molecular target: T1, HER2ECDHis; assay: ELISA; competitor 129
Experimental: as §1, §2

[10] = molecular target: T1, HER2ECDHis; assay: ELISA; competitor tras
Experimental: as §1, §2

[11] = molecular target: T1, HER2ECDHis; assay: ELISA; competitor pert
Experimental: as §1, §2

[12] = molecular target: T1, HER2ECDHis; assay: ELISA; competitor 091
Experimental: as §1, §2

[13] = molecular target: T1, HER2ECDHis; assay: ELISA; competitor 098
Experimental: as §1, §2

Row | Binder | % binding vs no competitor [1] [%] | % binding vs no competitor [2] [%] | % cells killed, AU565, anti-kappa-ETA'-conjugated [3] [%] | EC50 of cell kill, AU565, anti-kappa-ETA'-conjugated [3] [µg/mL] | % binding vs no competitor [4] [%] | % binding vs no competitor [5] [%] | % cells killed, A431, anti-kappa-ETA'-conjugated [6] [%] | % binding vs no competitor [7] [%] | Maximal MFI, fab-CypHer5E internalization, AU565 [8] [MFI] | % binding vs no competitor [9] [%] | % binding vs no competitor [10] [%] | % binding vs no competitor [11] [%] | % binding vs no competitor [12] [%] | % binding vs no competitor [13] [%] | EC50 of cell kill, A431, anti-kappa-ETA'-conjugated [6] [µg/mL] | EC50, fab-CypHer5E internalization, AU565 [8] [µg/mL]
1 | B1 | 73 | 102 | 49.9 | 0.0356 | 98 | 21 | 34 | 45 | 38800 | 106 | 19 | 101 | 105 | 105 | – | –
2 | B2 | 104 | 99 | 60 | 0.0167 | 18 | 100 | 86.7 | 98 | 63400 | 15 | 98 | 8 | 21 | 102 | ~0.00977 | 0.0301
3 | B3 | 74 | 104 | 52.4 | 0.0127 | 104 | 12 | – | 30 | – | 110 | 13 | 95 | 98 | 102 | – | –
4 | B4 | 100 | 98 | 50.6 | 0.0465 | 13 | 95 | 83.3 | 99 | 50700 | 78 | 99 | 5 | 15 | 98 | ~0.00986 | 0.033
5 | B5 | 20 | 98 | 58.1 | 0.027 | 106 | 76 | 50.5 | 73 | 71100 | 104 | 74 | 101 | 104 | 109 | – | 0.0305
6 | B6 | 92 | 98 | 60.8 | 0.0309 | 55 | 97 | 75.9 | 99 | 60300 | 12 | 93 | 22 | 76 | 106 | ~0.0106 | 0.00715

Reference: patent publication US20170369590A1 (Genmab, published 2017)
